Reference: patent US20240158515A1 (Regeneron, published 2024)

T1: cynomolgus FGFR3b expressed with a C-terminal myc-myc-hexahistidine tag (mfFGFR3b.mmH) (cynomolgus)
T1 construct: also called REGN3521; mf FGFR3b ecto (R357G)(E23-G377;R357G).mmH
T1 chain: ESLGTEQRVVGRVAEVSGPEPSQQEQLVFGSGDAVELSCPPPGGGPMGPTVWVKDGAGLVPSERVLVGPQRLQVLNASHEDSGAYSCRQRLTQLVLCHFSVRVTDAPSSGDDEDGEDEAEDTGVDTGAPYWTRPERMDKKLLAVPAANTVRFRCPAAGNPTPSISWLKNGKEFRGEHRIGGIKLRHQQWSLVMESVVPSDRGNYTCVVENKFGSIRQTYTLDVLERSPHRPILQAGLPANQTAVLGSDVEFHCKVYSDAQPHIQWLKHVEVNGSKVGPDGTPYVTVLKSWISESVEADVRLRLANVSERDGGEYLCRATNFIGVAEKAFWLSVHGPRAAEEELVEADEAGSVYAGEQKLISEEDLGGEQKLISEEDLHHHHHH

T2: human FGFR3b expressed with a C-terminal myc-myc-hexahistidine tag (hFGFR3b.mmH) (human)
T2 construct: also called REGN3152; monomeric human FGFR3b
T2 chain: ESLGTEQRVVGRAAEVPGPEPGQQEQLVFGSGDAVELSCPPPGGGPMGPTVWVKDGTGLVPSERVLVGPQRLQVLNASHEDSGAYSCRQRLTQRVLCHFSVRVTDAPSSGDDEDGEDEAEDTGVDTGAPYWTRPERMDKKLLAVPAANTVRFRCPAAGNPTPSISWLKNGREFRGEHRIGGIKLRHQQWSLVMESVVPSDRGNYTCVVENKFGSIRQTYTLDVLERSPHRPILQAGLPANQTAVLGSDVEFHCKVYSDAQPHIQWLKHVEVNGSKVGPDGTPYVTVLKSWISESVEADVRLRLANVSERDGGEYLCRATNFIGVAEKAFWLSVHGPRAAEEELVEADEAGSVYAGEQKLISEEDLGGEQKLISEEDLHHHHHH

T3: murine FGFR3b expressed with a C-terminal myc-myc-hexahistidine tag (mFGFR3b.mmH) (murine)
T3 construct: also called REGN3215; monomeric murine FGFR3b
T3 chain: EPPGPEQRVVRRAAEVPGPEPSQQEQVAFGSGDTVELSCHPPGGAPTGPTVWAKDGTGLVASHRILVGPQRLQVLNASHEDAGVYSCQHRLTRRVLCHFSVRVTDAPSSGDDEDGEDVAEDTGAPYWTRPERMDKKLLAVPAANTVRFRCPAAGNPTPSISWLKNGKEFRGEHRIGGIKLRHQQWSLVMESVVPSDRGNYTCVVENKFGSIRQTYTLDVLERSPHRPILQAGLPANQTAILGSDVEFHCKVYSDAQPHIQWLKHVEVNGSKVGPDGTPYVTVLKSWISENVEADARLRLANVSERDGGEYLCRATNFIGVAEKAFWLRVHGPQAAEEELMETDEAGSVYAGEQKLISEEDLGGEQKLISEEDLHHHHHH

T4: human FGFR3b expressed with a C-terminal murine Fc tag (hFGFR3b.mFc) (human)
T4 construct: called dimeric; also called REGN3153; dimeric human FGFR3b
T4 chain: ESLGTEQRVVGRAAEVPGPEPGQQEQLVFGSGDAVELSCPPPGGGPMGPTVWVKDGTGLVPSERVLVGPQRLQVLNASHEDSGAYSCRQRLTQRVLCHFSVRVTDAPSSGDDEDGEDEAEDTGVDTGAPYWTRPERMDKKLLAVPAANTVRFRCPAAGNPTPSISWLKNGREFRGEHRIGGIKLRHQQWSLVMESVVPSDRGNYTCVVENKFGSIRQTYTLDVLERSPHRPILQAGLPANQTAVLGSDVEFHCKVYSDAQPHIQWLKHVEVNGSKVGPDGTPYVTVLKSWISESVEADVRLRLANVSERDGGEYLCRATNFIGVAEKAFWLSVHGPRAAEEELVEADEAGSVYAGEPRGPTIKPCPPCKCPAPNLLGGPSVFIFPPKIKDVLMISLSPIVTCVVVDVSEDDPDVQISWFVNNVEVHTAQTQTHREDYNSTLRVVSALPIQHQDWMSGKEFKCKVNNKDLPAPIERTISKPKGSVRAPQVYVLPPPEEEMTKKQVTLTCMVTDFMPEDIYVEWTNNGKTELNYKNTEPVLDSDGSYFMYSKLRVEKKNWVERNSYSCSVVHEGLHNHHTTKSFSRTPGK


Legend:
[1] = molecular target: full length human FGFR3b on BaF3 cells (BAF3/FGFR3b, ACL11991) (human, UniProt P22607 23-808); test: cell-based or functional assay
[2] = molecular target: full length human FGFR3b S249C on BaF3 cells (BAF3/FGFR3b_S249C, ACL11986) (human, UniProt P22607 23-808); test: cell-based or functional assay
[3] = molecular target: T1, cynomolgus FGFR3b expressed with a …; test: SPR Biacore, mAb captured on anti-hFc, 25C
Description: (§1) The CM5 Biacore sensor surface was derivatized by amine coupling with a monoclonal mouse anti-human Fc monoclonal antibody (REGN2567). […] Antibody-reagent association was monitored for 5 minutes while dissociation in HBS-EP running buffer was monitored for 10 minutes. At the end of each cycle, the anti-FGFR3 antibody capture surface was regenerated using a 10 sec injection of 20 mM phosphoric acid. All binding kinetics experiments were performed at 25° C.
(§2) The specific SPR-Biacore sensorgrams were obtained by a double referencing procedure. The double referencing was performed by first subtracting the signal of each injection over a reference surface (anti-hFc) from the signal over the experimental surface (anti-hFc-captured anti-FGFR3 antibodies) thereby removing contributions from refractive index changes. In addition, running buffer injections were performed to allow subtraction of the signal changes resulting from the dissociation of captured antibodies from the coupled anti-hFc surface. Kinetic association (kₐ) and dissociation (kd) rate constants were determined by fitting the real-time sensorgrams to a 1:1 binding model using Scrubber v2.0c curve fitting software.

[4] = molecular target: T2, human FGFR3b expressed with a …; test: SPR Biacore, mAb captured on anti-hFc, 25C
Description: as §1, §2

[5] = molecular target: T3, murine FGFR3b expressed with a …; test: SPR Biacore, mAb captured on anti-hFc, 25C
Description: as §1, §2

[6] = molecular target: T5, human FGFR3c expressed with a C-terminal myc-myc-hexahistidine tag (hFGFR3c.mmH) (human, UniProt P22607 23-375); test: SPR Biacore, mAb captured on anti-hFc, 25C
T5 construct: also called REGN3155; monomeric human FGFR3c
Description: as §1, §2

[7] = molecular target: T4, human FGFR3b expressed with a …; test: SPR Biacore, mAb captured on anti-hFc, 25C
Description: as §1, §2

[8] = molecular target: T3, murine FGFR3b expressed with a …; test: SPR Biacore, mAb captured on anti-hFc, 25C; row marked NB
Description: as §1, §2

[9] = molecular target: T5, human FGFR3c expressed with a …; test: as above
Description: as §1, §2

[10] = molecular target: T4, human FGFR3b expressed with a …; test: competition ELISA: 4 nM hFGFR3b-mFc binding to plate-coated hFGF acidic
Description: The fixed concentration of hFGFR3b or hFGFR3c proteins was selected to be near the concentration that generated 50% of the maximal binding (EC₅₀ value) to plate-adhered hFGF acidic or hFGF basic protein. […] The plates were then developed using TMB substrate solution (BD Biosciences) according to the manufacturer's recommended procedure and absorbance at 450 nm was measured on a Victor X5 plate reader.
Binding data were analyzed using a sigmoidal (four-parameter logistic) dose-response model using GraphPad Prism software. […] Percent blocking of FGFR3 antibody at a given concentration was calculated based on the formula shown below.
The ability of anti-FGFR3 antibodies to block human FGFR3b binding to hFGF acidic protein or hFGFR3c binding to hFGF acidic or hFGF basic proteins was evaluated using a sandwich ELISA-based blocking assay.

Row | Binder | 90 nM mfFGFR3b.mmH Bind (RU) [3] [RU] | Kd [3] [nM] | koff [3] [s⁻¹] | kon [3] [M⁻¹ s⁻¹] | t½ [3] [min] | 90 nM hFGFR3b.mmH Bind (RU) [4] [RU] | Kd [4] [nM] | koff [4] [s⁻¹] | kon [4] [M⁻¹ s⁻¹] | t½ [4] [min] | 90 nM hFGFR3c.mmH Bind (RU) [6] [RU] | Kd [6] [nM] | koff [6] [s⁻¹] | kon [6] [M⁻¹ s⁻¹] | t½ [6] [min] | 30 nM hFGFR3b.mFc Bind (RU) [7] [RU] | Kd [7] [nM] | koff [7] [s⁻¹] | kon [7] [M⁻¹ s⁻¹] | t½ [7] [min] | further results
1 | H4H30102P2 (antibody, human IgG4 S228P, kappa, V domains shown) VH: EVQLVESGGDLVQPGGSLRLSCAASGFTFSSYEMNWVRQAPGKGLEWVSYISNSGSTIYYADSVKGRFTISRDNAETSLYLQMNSLRAEDTAVYYCAREGWGAYCAGDCYSGFDIWGQGTMVTVSS VL: not shown | 126 | 1.75 | 0.00023 | 131000 | 50.2 | – | – | – | – | – | – | – | – | – | – | – | – | – | – | – | IC50 [M], BaF3 proliferation (CellTiter-Glo) with 1 nM FGF1 + 5 ug/ml heparin [1]: 1.86e-08 M; Max Blocking (%), BaF3 proliferation (CellTiter-Glo) with 1 nM FGF1 + 5 ug/ml heparin [1]: 41.1%; Max Blocking (%), BaF3 proliferation (CellTiter-Glo) with 1 nM FGF1 + 5 ug/ml heparin [2]: 34.5%
2 | H4H30045P (antibody, human IgG4 S228P, kappa, V domains shown, HCVR 179, LCVR 187) VH: QVQLVQSGAEVKKPGASVKVSCKTSGYRFVNYGFSWVRQAPGQGLEWMGWISPYNGNTNYIQNLQDRITMTTDTSTNTAYMELTNLRSDDTAVYYCATLTGVHFDYWGQGTLVTVSS VL: AIQMTQSPSSLSASVGDRVTITCRASQGIRNDLGWYQQKPGKAPNLLIFETSRLQSGVPSRFSGSGSGTDFTLTINSLQPEDFATYYCLQDYNYPWTFGQGTKVEIKR | 71.9 | 20.6 | 0.00882 | 429000 | 1.3 | 124 | 16.2 | 0.00624 | 385000 | 1.9 | 77.1 | 19.6 | 0.00746 | 381000 | 1.5 | 266 | 0.581 | 0.000161 | 277000 | 71.8 | binding result [5]: no binding (tested: 90 nM); 90 nM mFGFR3b.mmH Bind (RU) [8]: 2.4 RU
3 | H4H30061P (antibody, human IgG4 S228P, kappa, V domains shown) VH: EVQLVESGGGLAQPGGSLKLSCEASGFTFSDSAMHWVRQASGKGLEWVGRIRSKANSYATGYAASVKGRFTISRDDSKNMAFLEMNSLKTEDTAVYYCLRQTYGDPWGQGTLVTVSS VL: DVVMTQSPLSLSVTLGQPASISCRSSLSLVYSDGNNYLNWFQQRPGQSPRRLLYKVFNRDSGVPDRFSGSGSGTDFTLKISRVEAEDVGVYYCMQGTHWPWTFGQGTKVEIKR | 197 | 0.65 | 9.83e-05 | 151000 | 118 | 249 | 0.506 | 8.74e-05 | 173000 | 132 | 204 | 0.526 | 7.92e-05 | 151000 | 146 | 260 | ≤ 0.0433 | ≤ 1e-05 | 231000 | ≥ 1160 | 90 nM mFGFR3b.mmH Bind (RU) [8]: -8.5 RU
4 | H4H30066P (antibody, human IgG4 S228P, kappa, V domains shown, HCVR 22, LCVR 30) VH: QVQLVQSGAEVKKPGASVKVSCKVSGYTLTELSMHWVRQAPGKGLEWMGGFDPEDGEIIYAQKFQGRVTMTEDTSTDTAYMDLSSLTSEDTAVYYCATEKQQLVRKYYFYYGLAVWGQGTTVTVSS VL: not shown | 203 | 1.99 | 0.000779 | 391000 | 14.8 | 224 | 1.28 | 0.000635 | 496000 | 18.2 | – | – | – | – | – | 282 | ≤ 0.0158 | ≤ 1e-05 | 632000 | ≥ 1160 | 90 nM mFGFR3b.mmH Bind (RU) [5]: 64.6 RU; Kd [5]: 16.9 nM; koff [5]: 0.00487 s⁻¹; kon [5]: 288000 M⁻¹ s⁻¹; t½ [5]: 2.4 min; binding result [6]: no binding (tested: 90 nM); 90 nM hFGFR3c.mmH Bind (RU) [9]: 0.5 RU; % Blocking at 200 nM mAb [10]: 90%; IC50 [10]: 3.2 nM
5 | H4H30071P (antibody, human IgG4 S228P, kappa, V domains shown, HCVR 42, LCVR 50) VH: QVQLQQSGPGLVKPSQTLSLTCAISGDSVSRNSAAWNWIRQSPSSGLEWLGRTYYRSKWFYDYAISVKSRITVNPDTSKNQFSLHLNSVTPEDTAVYYCARGYGGYEDYFDYWGQGTLVTVSS VL: DIQMTQSPSSVSASVGDRVTITCRASQGISSWLAWYQQKPGKAPKLLIYGASSLQSGVPSRFSGSGSGTDFTLTISSLQPEDFATYFCQQGSSFPYTFGQGTKLEIKR | 233 | 0.123 | 2.22e-05 | 180000 | 520 | 253 | 0.137 | 2.96e-05 | 216000 | 390 | – | – | – | – | – | 236 | ≤ 0.031 | ≤ 1e-05 | 322000 | ≥ 1160 | 90 nM mFGFR3b.mmH Bind (RU) [5]: 174 RU; Kd [5]: 7.65 nM; koff [5]: 0.00169 s⁻¹; kon [5]: 220000 M⁻¹ s⁻¹; t½ [5]: 6.9 min; 90 nM hFGFR3c.mmH Bind (RU) [9]: -4.8 RU; % Blocking at 200 nM mAb [10]: 88%; IC50 [10]: 3.6 nM
